Assay results: the supplement of paper PMC6755084

B1: F1*; the commonest letter at each place (parent)
chain: GAGACCGCAACTGAAAAGTTGTTATCACTTGTCGTAAGACACTTTGGATGGGTTGAAGTTCTGCACGTAGAAGCAAAAGGC

Variants of: B1
Assay: fraction ligated after 30 min (ligated reads / total reads); higher = more ligase activity
Settings: with F1*sub RNA substrate (template-directed ligation), 42 °C
How it was run: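 The ligase ribozyme variants were produced by PCR amplification of oligo-pool templates, T7 transcription and purification on gel. Their ligated and unligated forms were gel-separated, then reverse transcribed with barcoded primers before MiSeq sequencing. Core bases were filtered at a quality of ≥20, and fraction ligated per variant was ligated reads over total reads.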

Variant | fraction ligated
GAGACCGCAACTGAAAAGTTGTTATCACTTGTCGTAAGACACTTTGGATGGGTTTAAGTTCTGCACGTAGAAGCAAAAGGC [G55T] | 0.83
GAGACCGCAACTGAAAAGTTGTTATCACTTGTCGTAAGACACTTTGGATGGGTTAAAGTTCTGCACGTAGAAGCAAAAGGC [G55A] | 0.822
GAGACCGCAACTGAAAAGTTGTTATCACTTGTCGTAAGACACTTTGGATGGGTTCAAGTTCTGCACGTAGAAGCAAAAGGC [G55C] | 0.778
GAGACCGCAACTGAAAAGTTGTTATCACTTGTCGTAAGACACTTTGGATTGGTTTAAGTTCTGCACGTAGAAGCAAAAGGC [G50T G55T] | 0.123
GAGACCGCAACTGAAAAGTTGTTATCACTTGTCGTAAGACACTTTGGATTGGTTCAAGTTCTGCACGTAGAAGCAAAAGGC [G50T G55C] | 0.143
GAGACCGCAACTGAAAAGTTGTTATCACTTGTCGTAAGACACTTTGGATGGGTTGCCGTTCTGCACGTAGAAGCAAAAGGC [A56C A57C] | 0.447
GAGACCGCAACTGAAAAGTTGTTATCACTTGTCGTAAGACACTTTGGATGGGTTGCGGTTCTGCACGTAGAAGCAAAAGGC [A56C A57G] | 0.0212
GAGACCGCAACTGAAAAGTTGTTATCACTTGTCGTAAGACACTTTGGATGGGTTGCTGTTCTGCACGTAGAAGCAAAAGGC [A56C A57T] | 0.77
GAGACCGCAACTGAAAAGTTGTTATCACTTGTCGTAAGACACTTTGGATGGGTTCGAGTTCTGCACGTAGAAGCAAAAGGC [G55C A56G] | 0.843
GAGACCGCAACTGAAAAGTTGTTATCACTTGTCGTAAGACACTTTGGATGGGTTCTAGTTCTGCACGTAGAAGCAAAAGGC [G55C A56T] | 0.737
GAGACCGCAACTGAAAAGTTGTTATCACTTGTCGTAAGACACTTTGGATGGGTTCCAGTTCTGCACGTAGAAGCAAAAGGC [G55C A56C] | 0.218
GAGACCGCAACTGAAAAGTTGTTATCACTTGTCGTAAGACACTTTGGATGGGTTTTCGTTCTGCACGTAGAAGCAAAAGGC [G55T A56T A57C] | 0.00568
GAGACCGCAACTGAAAAGTTGTTATCACTTGTCGTAAGACACTTTGGATGGGTTTTTGTTCTGCACGTAGAAGCAAAAGGC [G55T A56T A57T] | 0.0137
GAGACCGCAACTGAAAAGTTGTTATCACTTGTCGTAAGACACTTTGGATGGGTTTTGGTTCTGCACGTAGAAGCAAAAGGC [G55T A56T A57G] | 0.0103
GAGACCGCAACTGAAAAGTTGTTATCACTTGTCGTAAGACACTTTGGATGGGTTAGAGTTCTGCACGTAGAAGCAAAAGGC [G55A A56G] | 0.821
GAGACCGCAACTGAAAAGTTGTTATCACTTGTCGTAAGACACTTTGGATGGGTTACAGTTCTGCACGTAGAAGCAAAAGGC [G55A A56C] | 0.729
GAGACCGCAACTGAAAAGTTGTTATCACTTGTCGTAAGACACTTTGGATGGGTTATAGTTCTGCACGTAGAAGCAAAAGGC [G55A A56T] | 0.8

Variant | fraction ligated
GAGACCGCAACTGAAAAGTTGTTATCACTTGTCGTAAGACACTTTGGATGGGTTTTAGTTCTGCACGTAGAAGCAAAAGGC [G55T A56T] | 0.378
GAGACCGCAACTGAAAAGTTGTTATCACTTGTCGTAAGACACTTTGGATGGGTTTGAGTTCTGCACGTAGAAGCAAAAGGC [G55T A56G] | 0.806
GAGACCGCAACTGAAAAGTTGTTATCACTTGTCGTAAGACACTTTGGATGGGTTTCAGTTCTGCACGTAGAAGCAAAAGGC [G55T A56C] | 0.014
GAGACCGCAACTGAAAAGTTGTTATCACTTGTCGTAAGACACTTTGGATGGGTTAGTGTTCTGCACGTAGAAGCAAAAGGC [G55A A56G A57T] | 0.152
GAGACCGCAACTGAAAAGTTGTTATCACTTGTCGTAAGACACTTTGGATGGGTTAGGGTTCTGCACGTAGAAGCAAAAGGC [G55A A56G A57G] | 0.338
GAGACCGCAACTGAAAAGTTGTTATCACTTGTCGTAAGACACTTTGGATGGGTTAGCGTTCTGCACGTAGAAGCAAAAGGC [G55A A56G A57C] | 0.131
GAGACCGCAACTGAAAAGTTGTTATCACTTGTCGTAAGACACTTTGGATGGGTTTCGGTTCTGCACGTAGAAGCAAAAGGC [G55T A56C A57G] | 0.00397
GAGACCGCAACTGAAAAGTTGTTATCACTTGTCGTAAGACACTTTGGATGGGTTTCCGTTCTGCACGTAGAAGCAAAAGGC [G55T A56C A57C] | 0.00348
GAGACCGCAACTGAAAAGTTGTTATCACTTGTCGTAAGACACTTTGGATGGGTTTCTGTTCTGCACGTAGAAGCAAAAGGC [G55T A56C A57T] | 0.0111
GAGACCGCAACTGAAAAGTTGTTATCACTTGTCGTAAGACACTTTGGATGGGTGGAAGTTCTGCACGTAGAAGCAAAAGGC [T54G] | 0.807
GAGACCGCAACTGAAAAGTTGTTATCACTTGTCGTAAGACACTTTGGATGGGTCGAAGTTCTGCACGTAGAAGCAAAAGGC [T54C] | 0.846
GAGACCGCAACTGAAAAGTTGTTATCACTTGTCGTAAGACACTTTGGATGGGTAGAAGTTCTGCACGTAGAAGCAAAAGGC [T54A] | 0.828
GAGACCGCAACTGAAAAGTTGTTATCACTTGTCGTAAGACACTTTGGATGGGTTCCTGTTCTGCACGTAGAAGCAAAAGGC [G55C A56C A57T] | 0.0335
GAGACCGCAACTGAAAAGTTGTTATCACTTGTCGTAAGACACTTTGGATGGGTTCCGGTTCTGCACGTAGAAGCAAAAGGC [G55C A56C A57G] | 0.0246
GAGACCGCAACTGAAAAGTTGTTATCACTTGTCGTAAGACACTTTGGATGGGTTCCCGTTCTGCACGTAGAAGCAAAAGGC [G55C A56C A57C] | 0.0245
GAGACCGCAACTGAAAAGTTGTTATCACTTGTCGTAAGACACTTTGGATGGGTTTGTGTTCTGCACGTAGAAGCAAAAGGC [G55T A56G A57T] | 0.0243
GAGACCGCAACTGAAAAGTTGTTATCACTTGTCGTAAGACACTTTGGATGGGTTTGGGTTCTGCACGTAGAAGCAAAAGGC [G55T A56G A57G] | 0.0371
